Results taken from patent US20060257938A1, “Method of screening for drugs that block ligand binding to a lipid binding protein” (priority 2005, published 2006).

Experiments:
Type in all cases: binding
[1] = Probe fluorescence ratio response to arachidonic acid relative to ADIFAB2; conditions: arachidonic acid; response relative to ADIFAB2
How it was run: (§1)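 Fluorescently labeled rat intestinal FABP variants were read at two emission wavelengths, near the unbound maximum (about 420 to 480 nm) and the FFA-bound maximum (about 495 to 580 nm). R = Fλ1/Fλ2 after subtracting probe-free intensity; ΔR = R+agent − R0, normalized to ADIFAB2 (rI-FABP-L72A).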

[2] = Probe fluorescence ratio response to linolenic acid relative to ADIFAB2; conditions: response relative to ADIFAB2
How it was run: as §1

[3] = Probe fluorescence ratio response to linoleic acid relative to ADIFAB2; conditions: response relative to ADIFAB2
How it was run: as §1

[4] = Probe fluorescence ratio response to oleic acid relative to ADIFAB2; conditions: response relative to ADIFAB2
How it was run: as §1

[5] = Probe fluorescence ratio response to palmitic acid relative to ADIFAB2; conditions: response relative to ADIFAB2
How it was run: as §1

Molecule | DR/DR AA [1] | DR/DR LNA [2] | DR/DR LA [3] | DR/DR OA [4] | DR/DR PA [5]
23P1, 72A (protein, listed as Rattus norvegicus, PEPTIDE (1)...(131) wild-type rat intestinal fatty acid binding protein) AFDGTWKVDRNENYEKFMEKMGPNVVKRKLGAHDNLKLTITQEGNKFTVKESSNFRNIDVVFELGVDFAYSAADGTELTGTWTMEGNKLVGKFKRVDNGKELIAVREISGNELIQTYTYEGVEAKRIFKKE | 1.25 | 1.38 | 1.36 | 1.24 | 0.64
31E3, 72A (protein, listed as Rattus norvegicus, PEPTIDE (1)...(131) wild-type rat intestinal fatty acid binding protein) AFDGTWKVDRNENYEKFMEKMGINVVKRKLEAHDNLKLTITQEGNKFTVKESSNFRNIDVVFELGVDFAYSAADGTELTGTWTMEGNKLVGKFKRVDNGKELIAVREISGNELIQTYTYEGVEAKRIFKKE | 0.55 | 0.82 | 0.74 | 0.50 | 0.38
31K2, 72A (protein, listed as Rattus norvegicus, PEPTIDE (1)...(131) wild-type rat intestinal fatty acid binding protein) AFDGTWKVDRNENYEKFMEKMGINVVKRKLKAHDNLKLTITQEGNKFTVKESSNFRNIDVVFELGVDFAYSAADGTELTGTWTMEGNKLVGKFKRVDNGKELIAVREISGNELIQTYTYEGVEAKRIFKKE | 0.85 | 0.90 | 0.91 | 0.97 | 0.42
31F2, 72A (protein, listed as Rattus norvegicus, PEPTIDE (1)...(131) wild-type rat intestinal fatty acid binding protein) AFDGTWKVDRNENYEKFMEKMGINVVKRKLFAHDNLKLTITQEGNKFTVKESSNFRNIDVVFELGVDFAYSAADGTELTGTWTMEGNKLVGKFKRVDNGKELIAVREISGNELIQTYTYEGVEAKRIFKKE | 1.41 | 1.62 | 1.76 | 1.43 | 1.21
23R3, 72A (protein, listed as Rattus norvegicus, PEPTIDE (1)...(131) wild-type rat intestinal fatty acid binding protein) AFDGTWKVDRNENYEKFMEKMGRNVVKRKLGAHDNLKLTITQEGNKFTVKESSNFRNIDVVFELGVDFAYSAADGTELTGTWTMEGNKLVGKFKRVDNGKELIAVREISGNELIQTYTYEGVEAKRIFKKE | 0.14 | 0.14 | 0.14 | 0.12 | 0.10
31P1, 72A (protein, listed as Rattus norvegicus, PEPTIDE (1)...(131) wild-type rat intestinal fatty acid binding protein) AFDGTWKVDRNENYEKFMEKMGINVVKRKLPAHDNLKLTITQEGNKFTVKESSNFRNIDVVFELGVDFAYSAADGTELTGTWTMEGNKLVGKFKRVDNGKELIAVREISGNELIQTYTYEGVEAKRIFKKE | 0.25 | 0.27 | 0.30 | 0.22 | 0.23
31Q3, 72A (protein, listed as Rattus norvegicus, PEPTIDE (1)...(131) wild-type rat intestinal fatty acid binding protein) AFDGTWKVDRNENYEKFMEKMGINVVKRKLQAHDNLKLTITQEGNKFTVKESSNFRNIDVVFELGVDFAYSAADGTELTGTWTMEGNKLVGKFKRVDNGKELIAVREISGNELIQTYTYEGVEAKRIFKKE | 1.02 | 1.49 | 1.47 | 1.31 | 1.04
23W1, 72A (protein, listed as Rattus norvegicus, PEPTIDE (1)...(131) wild-type rat intestinal fatty acid binding protein) AFDGTWKVDRNENYEKFMEKMGWNVVKRKLGAHDNLKLTITQEGNKFTVKESSNFRNIDVVFELGVDFAYSAADGTELTGTWTMEGNKLVGKFKRVDNGKELIAVREISGNELIQTYTYEGVEAKRIFKKE | 0.62 | 0.96 | 0.79 | 0.45 | 0.49
31R1, 72A (protein, listed as Rattus norvegicus, PEPTIDE (1)...(131) wild-type rat intestinal fatty acid binding protein) AFDGTWKVDRNENYEKFMEKMGINVVKRKLRAHDNLKLTITQEGNKFTVKESSNFRNIDVVFELGVDFAYSAADGTELTGTWTMEGNKLVGKFKRVDNGKELIAVREISGNELIQTYTYEGVEAKRIFKKE | 0.25 | 0.44 | 0.40 | 0.23 | 0.34
23V2, 72A (protein, listed as Rattus norvegicus, PEPTIDE (1)...(131) wild-type rat intestinal fatty acid binding protein) AFDGTWKVDRNENYEKFMEKMGVNVVKRKLGAHDNLKLTITQEGNKFTVKESSNFRNIDVVFELGVDFAYSAADGTELTGTWTMEGNKLVGKFKRVDNGKELIAVREISGNELIQTYTYEGVEAKRIFKKE | 1.46 | 1.35 | 1.73 | 1.56 | 1.48
23Y1, 72A (protein, listed as Rattus norvegicus, PEPTIDE (1)...(131) wild-type rat intestinal fatty acid binding protein) AFDGTWKVDRNENYEKFMEKMGYNVVKRKLGAHDNLKLTITQEGNKFTVKESSNFRNIDVVFELGVDFAYSAADGTELTGTWTMEGNKLVGKFKRVDNGKELIAVREISGNELIQTYTYEGVEAKRIFKKE | 0.49 | 0.44 | 0.44 | 0.41 | 0.28
23T1, 72A (protein, listed as Rattus norvegicus, PEPTIDE (1)...(131) wild-type rat intestinal fatty acid binding protein) AFDGTWKVDRNENYEKFMEKMGTNVVKRKLGAHDNLKLTITQEGNKFTVKESSNFRNIDVVFELGVDFAYSAADGTELTGTWTMEGNKLVGKFKRVDNGKELIAVREISGNELIQTYTYEGVEAKRIFKKE | 0.22 | 0.21 | 0.33 | 0.19 | 0.24
31D2, 72A (protein, listed as Rattus norvegicus, PEPTIDE (1)...(131) wild-type rat intestinal fatty acid binding protein) AFDGTWKVDRNENYEKFMEKMGINVVKRKLDAHDNLKLTITQEGNKFTVKESSNFRNIDVVFELGVDFAYSAADGTELTGTWTMEGNKLVGKFKRVDNGKELIAVREISGNELIQTYTYEGVEAKRIFKKE | 0.20 | 0.14 | 0.16 | 0.13 | 0.06
31C1, 72A (protein, listed as Rattus norvegicus, PEPTIDE (1)...(131) wild-type rat intestinal fatty acid binding protein) AFDGTWKVDRNENYEKFMEKMGINVVKRKLCAHDNLKLTITQEGNKFTVKESSNFRNIDVVFELGVDFAYSAADGTELTGTWTMEGNKLVGKFKRVDNGKELIAVREISGNELIQTYTYEGVEAKRIFKKE | 0.32 | 0.36 | 0.36 | 0.30 | 0.23
31N2, 72A (protein, listed as Rattus norvegicus, PEPTIDE (1)...(131) wild-type rat intestinal fatty acid binding protein) AFDGTWKVDRNENYEKFMEKMGINVVKRKLNAHDNLKLTITQEGNKFTVKESSNFRNIDVVFELGVDFAYSAADGTELTGTWTMEGNKLVGKFKRVDNGKELIAVREISGNELIQTYTYEGVEAKRIFKKE | 0.88 | 1.06 | 1.04 | 0.91 | 0.50
31M2, 72A (protein, listed as Rattus norvegicus, PEPTIDE (1)...(131) wild-type rat intestinal fatty acid binding protein) AFDGTWKVDRNENYEKFMEKMGINVVKRKLMAHDNLKLTITQEGNKFTVKESSNFRNIDVVFELGVDFAYSAADGTELTGTWTMEGNKLVGKFKRVDNGKELIAVREISGNELIQTYTYEGVEAKRIFKKE | 0.52 | 0.57 | 0.41 | 1.08 | 0.46
31I1, 72A (protein, listed as Rattus norvegicus, PEPTIDE (1)...(131) wild-type rat intestinal fatty acid binding protein) AFDGTWKVDRNENYEKFMEKMGINVVKRKLIAHDNLKLTITQEGNKFTVKESSNFRNIDVVFELGVDFAYSAADGTELTGTWTMEGNKLVGKFKRVDNGKELIAVREISGNELIQTYTYEGVEAKRIFKKE | 0.30 | 0.41 | 0.17 | −0.21 | 0.09
